Data taken from patent US20150133367A1 (University of Pennsylvania, published 2015).
Read-outs that look alike come from different tables or passages of the source. Values belong to the binder of their own block, whether it stands above or below them. Positions of bridges follow the written chain, without caps; N, C: chain ends. Non-standard residues stand in square brackets, D forms with d. No end group written: not given here. alpha,alpha'‑meta‑xylylene = alpha,alpha'-meta-xylylene linker (from a,a'-dibromo-meta-xylene) bridging two cysteines via bis-thioether; Bip = N[C@@H](Cc1ccc(-c2ccccc2)cc1)C(=O)O; 2Nal = N[C@@H](Cc1ccc2ccccc2c1)C(=O)O

Key:
Assay in all cases: fluorescence-based enzyme inhibition assay
Cathepsin S = Cathepsin S (UniProt P25774 115-331)
Sequence of Cathepsin S (P25774 115-331 limits assumed): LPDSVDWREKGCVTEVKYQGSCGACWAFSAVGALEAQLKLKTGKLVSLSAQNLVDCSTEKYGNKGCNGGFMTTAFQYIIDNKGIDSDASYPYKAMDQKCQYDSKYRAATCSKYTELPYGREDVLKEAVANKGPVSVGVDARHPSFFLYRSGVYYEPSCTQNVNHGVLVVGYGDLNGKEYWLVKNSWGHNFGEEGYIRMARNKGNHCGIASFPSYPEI

Cathepsin L [1] = molecular target: T1, Cathepsin L (UniProt P07711 114-333)
T1 sequence (P07711 114-333 limits assumed): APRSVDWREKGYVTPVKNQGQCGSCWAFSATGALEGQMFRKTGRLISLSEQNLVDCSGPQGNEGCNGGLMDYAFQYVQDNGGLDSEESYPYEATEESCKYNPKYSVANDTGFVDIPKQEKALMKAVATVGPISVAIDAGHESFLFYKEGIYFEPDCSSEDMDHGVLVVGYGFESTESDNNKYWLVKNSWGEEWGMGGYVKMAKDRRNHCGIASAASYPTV

Cathepsin K [2] = molecular target: T2, Cathepsin K (UniProt P43235 115-329)
T2 sequence (looked up): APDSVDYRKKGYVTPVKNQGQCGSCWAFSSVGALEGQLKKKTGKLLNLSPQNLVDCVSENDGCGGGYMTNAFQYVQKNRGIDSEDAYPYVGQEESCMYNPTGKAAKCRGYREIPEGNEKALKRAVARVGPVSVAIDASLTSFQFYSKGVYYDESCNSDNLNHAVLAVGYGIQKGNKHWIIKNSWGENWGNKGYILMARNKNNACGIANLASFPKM

Calpain-1 [3] = molecular target: Calpain-1
Cathepsin L [4] = molecular target: T1, Cathepsin L; remark: listed apart in the source
Cathepsin L [5] = molecular target: T1, Cathepsin L; remark: listed apart in the source
Calpain-1 [6] = molecular target: T3, Calpain-1
T3 chain 1: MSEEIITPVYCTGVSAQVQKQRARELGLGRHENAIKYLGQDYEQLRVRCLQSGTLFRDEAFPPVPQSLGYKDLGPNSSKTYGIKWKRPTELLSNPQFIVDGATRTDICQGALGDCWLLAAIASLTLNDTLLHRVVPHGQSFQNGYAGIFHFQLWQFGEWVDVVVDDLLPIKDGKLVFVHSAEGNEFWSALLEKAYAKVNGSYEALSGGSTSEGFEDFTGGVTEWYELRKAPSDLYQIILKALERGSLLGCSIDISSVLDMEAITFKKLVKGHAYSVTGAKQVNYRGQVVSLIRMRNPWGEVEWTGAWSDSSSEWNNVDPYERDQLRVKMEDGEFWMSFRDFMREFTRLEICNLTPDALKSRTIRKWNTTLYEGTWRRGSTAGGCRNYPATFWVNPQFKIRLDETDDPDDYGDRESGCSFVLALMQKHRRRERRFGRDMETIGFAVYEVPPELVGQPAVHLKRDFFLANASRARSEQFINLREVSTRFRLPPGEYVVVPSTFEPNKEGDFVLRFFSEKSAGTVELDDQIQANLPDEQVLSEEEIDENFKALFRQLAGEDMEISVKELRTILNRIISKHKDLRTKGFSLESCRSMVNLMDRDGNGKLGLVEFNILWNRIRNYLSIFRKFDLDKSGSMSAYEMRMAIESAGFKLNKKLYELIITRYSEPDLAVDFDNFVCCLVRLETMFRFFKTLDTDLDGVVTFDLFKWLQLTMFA
T3 chain 2: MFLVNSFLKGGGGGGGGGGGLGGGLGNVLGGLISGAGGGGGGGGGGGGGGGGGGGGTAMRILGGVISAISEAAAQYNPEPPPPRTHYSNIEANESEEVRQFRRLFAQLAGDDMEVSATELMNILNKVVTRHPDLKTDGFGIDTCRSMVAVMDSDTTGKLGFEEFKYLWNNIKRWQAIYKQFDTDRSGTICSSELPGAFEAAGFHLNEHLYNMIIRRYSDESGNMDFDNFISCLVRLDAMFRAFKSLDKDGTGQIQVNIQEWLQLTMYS

Cathepsin K [7] = molecular target: T2, Cathepsin K; remark: listed apart in the source

Ki (Cathepsin S): 43.5 µM | Ki (Cathepsin L [1]): 46.2 µM | Ki (Cathepsin K [2]): 76.8 µM
Binder: QCEVVCKMTGL (linker 2-6 via alpha,alpha'‑meta‑xylylene) [QCEVVCKMTGL (SEQ ID NO:34)]

Ki (Cathepsin S): 58.3 µM | Ki (Cathepsin L [1]): 48 µM | Ki (Cathepsin K [2]): > 100 µM
Binder: SCEVVCKPTGL (linker 2-6 via alpha,alpha'‑meta‑xylylene) [SCEVVCKPTGL (SEQ ID NO:39)]

Ki (Calpain-1 [3]): 9.65 µM
Binder: IPPK[Bip]CELLC (linker 6-10 via alpha,alpha'‑meta‑xylylene) [IPPK(bip)CELLC (SEQ ID NO:82)]

The next lines start with the binder.

B1: IPPK(OBn-Y)CELLC (SEQ ID NO:83) (peptide)
peptide: IPPKXCELLC
modifications: Cys6 and Cys10 (i,i+4) linked by alpha,alpha'-meta-xylylene; residue 5 OBn-Y = O-benzyltyrosine
Ki (Cathepsin L [4]): 16.7 µM | Ki (Calpain-1 [3]): 21.3 µM

Binder: SECFRQCMNGF (linker 3-7 via alpha,alpha'‑meta‑xylylene) [SECFRQCMNGF (SEQ ID NO:2)]
Ki (Cathepsin L [5]): 84.7 µM

Binder: SCE[Bip]RCVMNG[2Nal] (linker 2-6 via alpha,alpha'‑meta‑xylylene, also called compound (IIIa)) [SCE(bip)RCVMNG(nap) (SEQ ID NO:9)]
Ki (Calpain-1 [6]): 19.8 µM

Binder: SCEFRCVMNGF (linker 2-6 via alpha,alpha'‑meta‑xylylene) [SCEFRCVMNGF (SEQ ID NO:3)]
Ki (Cathepsin L [5]): 29.4 µM | Ki (Cathepsin K [7]): > 100 µM
